# From the supplement of paper PMC12764529
# ± gives the half width of the 95% confidence interval.
# Tests used:
# [1] = folding stability dG unfold (combined trypsin and chymotrypsin); higher = more stable
# Procedure, shortened: (§1)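 Designed mini-proteins with no cysteine and under 80 residues were kept only if AlphaFold2 dimer inter-PAE was above 15. In a PA-tagged cDNA display construct, they were digested with trypsin and chymotrypsin and then sequenced. K50 was inferred by Bayesian fitting of counts, and unfolding free energy was derived per protease or combined against a sequence-predicted unfolded-state K50 and a shared folded-state K50.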
# [2] = folding stability dG unfold from chymotrypsin proteolysis; higher = more stable
# Procedure, shortened: as §1
# [3] = folding stability dG unfold from trypsin proteolysis; higher = more stable
# Procedure, shortened: as §1
Sequence,folding stability dG unfold [1] [kcal/mol],folding stability dG unfold [2] [kcal/mol],folding stability dG unfold [3] [kcal/mol]
SAGGSAGGSAEYIVVNSDEQLKALKELGGVKEVERKENFVVVEFPDIPPELREKLLEVIKESAGGSAGGSAG [r3_398_TrMRF],-0.366 ± 0.5,-0.805 ± 0.94,-0.0633 ± 0.15
SAGGSAGGSAFIRAEYKLPENKVLEIEIPVPESVLKKMSIEEVKELFKKLGLPDDVKIEFYDESAGGSAGGS [r12_742_TrMRF],1.66 ± 0.098,1.78 ± 0.15,1.43 ± 0.041
SAGGSAGGSAGAANDPKKIPIHIFPPDGKPIFKVKIEVYDNGIKIKIEWHPSPDGLYPMISAGGSAGGSAGG [r11_874_TrROS],1.99 ± 0.14,1.98 ± 0.082,1.9 ± 0.089
SAGGSAGGSAGAAPDGETVRITAVFVNPETQEVFVVEATINPDGELTMEVKEVFKLPEGLSAGGSAGGSAGG [r11_226_TrROS_Hall],2.36 ± 0.068,2.782 ± 0.017,1.42 ± 0.033
SAGGSAGGSAGAAVSPEELKEKAKKEGYDGEVVVTRLPDGTLRVTVKDKGKKSEITVPLESAGGSAGGSAGG [r11_410_JUSTAS],0.672 ± 0.11,0.942 ± 0.041,0.263 ± 0.064
SAGGSAGGSAGAEELAKKLKELGFEVKVEKNEDGSLTLTVKFKPKPKPKKVVTKDGKEVKSAGGSAGGSAGG [r17_503_TrROS_Hall],1.61 ± 0.26,1.9 ± 0.11,0.579 ± 0.076
SAGGSAGGSAGAFVGYRDEGGRYWLRTPEGELELDSEEDALEWADFLRANGIPLLSEPRPSAGGSAGGSAGG [r17_35_TrMRF],1.43 ± 0.073,1.59 ± 0.11,1.08 ± 0.032
SAGGSAGGSAGAGKVVFEVDIKTFLGKRKDGSDAPKTIIEIKVFDIAPLDPNDPVLKALISAGGSAGGSAGG [r11_236_TrMRF],3.26 ± 0.22,3.54 ± 0.15,2.28 ± 0.11
SAGGSAGGSAGALPFKVKVVEVEVDGDEVTVKVVAELPTGTATVELKLGGKLETLTISPVSAGGSAGGSAGG [r17_45_TrMRF],2.16 ± 0.24,2.47 ± 0.13,1.49 ± 0.19
SAGGSAGGSAGAPNIVVVTLTRDALFYNPVEGKWEVKPVTLTRAFTSKEEADKWLEEIGLSAGGSAGGSAGG [r11_984_TrMRF],3.5 ± 0.095,3.84 ± 0.042,2.95 ± 0.091
SAGGSAGGSAGAPPEGAKPVEEETVPIEIQMRNDDDGKPIMPIKFEVRVYKFPDGIFISISAGGSAGGSAGG [r11_415_TrROS],2.45 ± 0.21,2.91 ± 0.042,1.34 ± 0.13
SAGGSAGGSAGAYRVEVNVELTPEAREAFLKNPELPADAEIPVVVSGRVEPVPLGPEGVLSAGGSAGGSAGG [r17_194_TrMRF],-0.143 ± 0.12,0.0793 ± 0.14,-0.58 ± 0.2
SAGGSAGGSAGDDNDGKKKFPMTIKIPPIPIEIPPGMKITSWIPIRIPGGLEFPIIYITPSAGGSAGGSAGG [r11_388_TrROS],1.03 ± 0.098,1.1 ± 0.12,0.923 ± 0.045
SAGGSAGGSAGDIDPEDDIFYLTVRLKDGVPFVLPVRYDDIPFIPPEFVEEATFHKPKDISAGGSAGGSAGG [r11_779_TrMRF],0.246 ± 0.083,0.0924 ± 0.18,0.365 ± 0.096
SAGGSAGGSAGDKPITIFIPGTPDDIKDYIEDEGFKIKDIEIQYHKNKDGKYWVMVTIRVSAGGSAGGSAGG [r11_632_TrROS],3.19 ± 0.25,3.33 ± 0.13,2.87 ± 0.18
SAGGSAGGSAGDNIYVFEIDIKIKPRKDPDGKWQPEIEINIKIKDIKPIPPNDPELKDLLSAGGSAGGSAGG [r11_236_TrROS],1.94 ± 0.07,1.99 ± 0.036,2 ± 0.05
SAGGSAGGSAGDVEVRFEVKFTPDGTLIIKAEIRLPDIPDVTIRVEAVILPNGEILVKVSSAGGSAGGSAGG [r11_483_TrMRF],3.68 ± 0.16,3.06 ± 0.15,3.68 ± 0.11
SAGGSAGGSAGDWIMFNFTYKDPGDPGKERTITILIPIPPPPPPEPKPVKDPNGNEGPVYSAGGSAGGSAGG [r11_419_TrROS],1.99 ± 0.18,1.86 ± 0.08,1.69 ± 0.1
SAGGSAGGSAGEEVLTLTFPVPPDAPPPGLEAIRESLPGLEDVELDAEELPDGTVRVVLSSAGGSAGGSAGG [r17_205_TrMRF],-0.452 ± 0.68,-0.172 ± 0.4,-0.558 ± 0.19
SAGGSAGGSAGEGLKVTVTVSGELDPEKGGLSLRVEIRVEPVLIPPPVLPPAADNLSNLLSAGGSAGGSAGG [r17_454_TrMRF],1.55 ± 0.09,0.912 ± 0.079,1.94 ± 0.072
SAGGSAGGSAGEKTLKIVADSEEEAEALAKELAEKYNLEVTIERNPEEEGKYVITIKIKPSAGGSAGGSAGG [r11_797_TrROS_Hall],3.17 ± 0.17,3.5 ± 0.045,2.46 ± 0.14

Sequence,folding stability dG unfold [1] [kcal/mol],folding stability dG unfold [2] [kcal/mol],folding stability dG unfold [3] [kcal/mol]
SAGGSAGGSAGEMYKIKIFNKETGKELTLVFESEEEAKEALKKKFPNAKIEIEKISKEELSAGGSAGGSAGG [r11_978_TrROS_Hall],2.8 ± 0.23,3.1 ± 0.13,2.38 ± 0.13
SAGGSAGGSAGEVVRVYPTPDGTTVTITPHPTTYTVTTTSPDGVPTTTPVSPAEVAALGLSAGGSAGGSAGG [r17_127_JUSTAS],-0.0994 ± 0.2,-0.25 ± 0.3,-0.0385 ± 0.09
SAGGSAGGSAGEWVTIPIKNPEKLKDLPGLPIKDVEPNGGKPTITFNGDDPERIKEALNDSAGGSAGGSAGG [r11_65_TrROS],0.682 ± 0.3,0.498 ± 0.063,0.804 ± 0.057
SAGGSAGGSAGFKSVTIGSGTGGLTLTITDVTTGKNTVVNATSLEEAEKIGKEKGWKIILSSAGGSAGGSAG [r3_67_JUSTAS],0.305 ± 0.15,-0.281 ± 0.4,0.604 ± 0.07
SAGGSAGGSAGGAAPDDVKIEIEWDVGVMTMEMMNPGGQPHKMYMIMVSLKIEIEPNADSAGGSAGGSAGGS [r10_1212_TrROS],4.95 ± 0.18,5.09 ± 0.18,3.74 ± 0.25
SAGGSAGGSAGGAMAPDEPVERVEVTYKTGRLTFPGKPVLKKEKVVLKFTLTVTDPALLSAGGSAGGSAGGS [r10_745_JUSTAS],0.0101 ± 0.15,-0.0228 ± 0.28,-0.234 ± 0.33
SAGGSAGGSAGGAMTVETVELPSGEVVTLEYDPASGRVLTTVETPDSVERTEDPLEPPAASAGGSAGGSAGG [r7_63_JUSTAS],-0.0846 ± 0.19,-0.403 ± 0.11,0.302 ± 0.015
SAGGSAGGSAGGAPDLSLPDVRPRVLVRNPATGKWYEFTSLEELEREIKSGRAEVLEISSAGGSAGGSAGGS [r10_520_TrMRF],0.573 ± 0.16,0.704 ± 0.11,0.327 ± 0.088
SAGGSAGGSAGGAPLVEVEEVETRRVKDPATKRWYRRTRVRVRNKETGEWYELEFVEPLSAGGSAGGSAGGS [r10_535_TrROS_Hall],2.54 ± 0.048,2.599 ± 0.02,2.49 ± 0.025
SAGGSAGGSAGGDAPNTTVTVTLKAEVYYDPSTGALVVKVTAYFPATNTTVTLEFTFPLSAGGSAGGSAGGS [r10_187_TrMRF],4.76 ± 0.72,4.66 ± 0.25,3.66 ± 0.24
SAGGSAGGSAGGDDDWRIMINIEIWPYPNYVRIRFPIMIIPPDGKLIGSVEVTFWIPANDSAGGSAGGSAGG [r7_812_TrROS],3.7 ± 0.38,3.84 ± 0.37,3.2 ± 0.18
SAGGSAGGSAGGDDNDKEPIGEVTVEVIIPPQIPIRIRWDIYKDPPNGNAMMNMDIDIHSAGGSAGGSAGGS [r10_6_TrROS],0.719 ± 0.22,0.968 ± 0.12,0.638 ± 0.12
SAGGSAGGSAGGDKNGKKELRPEVKIKVKIEAEIEPFRYPNNGMPMWILKISIEITSIDSAGGSAGGSAGGS [r10_877_TrROS],4.5 ± 0.19,4.75 ± 0.18,2.96 ± 0.18
SAGGSAGGSAGGDLNDAEIIDIYRDPDSDYYYAVFRGPDGGTYLVRFDPNSDRVEVIPLSAGGSAGGSAGGS [r10_674_TrMRF],3.05 ± 0.059,3.387 ± 0.024,2.27 ± 0.1
SAGGSAGGSAGGDNTKTLVLVIKVDENVTPEEIKKKLKDLGFKNVKIEKVGNYAVVTVSSAGGSAGGSAGGS [r10_868_TrMRF],2.92 ± 0.052,3.149 ± 0.03,2.58 ± 0.074
SAGGSAGGSAGGDWKMIEFYIPIEPDEPITIEIPDGVRIQIWRVDGYYKVTIMIPLEDISAGGSAGGSAGGS [r10_355_TrROS],3.17 ± 0.18,3.71 ± 0.083,2.42 ± 0.14
SAGGSAGGSAGGEEPVTFMVRIPIRRRDPDGNPEPVAEIDINVTMPPEDAERIIKELIKSAGGSAGGSAGGS [r10_574_TrROS],-0.326 ± 0.22,-0.547 ± 0.76,-0.245 ± 0.34
SAGGSAGGSAGGEEVTIVVKSKEDIEALLPPGWKVTKIEEIYVDKETGEKYYKITVKKESAGGSAGGSAGGS [r10_256_TrROS_Hall],4.06 ± 0.12,3.88 ± 0.062,4.23 ± 0.17
SAGGSAGGSAGGEIKGKKFKIVKIVEVRYDKETKEFYVRIYIEDTNEIITVRLEDLPEELSAGGSAGGSAGG [r7_304_TrROS_Hall],2.25 ± 0.18,2.29 ± 0.025,1.83 ± 0.077
SAGGSAGGSAGGEIKSGDKVVLVFNEDGKGYKAYYEEELEKLLKEDPKIKKVLVVDVPAESAGGSAGGSAGG [r7_118_TrMRF],-0.429 ± 0.22,-1.04 ± 0.77,-0.173 ± 0.064
SAGGSAGGSAGGEIPIKIRPYDPKDGEPKDEHPIPFDTPNGNSLDEIAKQLPPDHFEVDISAGGSAGGSAGG [r17_339_TrROS],0.875 ± 0.059,1.11 ± 0.018,0.382 ± 0.067
